Measured values published in the domain aggregation screens of Martell et al. (2025).

Assay: soluble fraction after stress (log2 fold change); higher = more stays soluble; pooled small domains, quantitative proteomics
Conditions: stress: 75 degC
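Note: 20 min heating vs room temperature control held 20 min.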

Row | Sequence | soluble fraction (log2)
1 | HMHVGVWIMNEKGEILLEQRASNKKVDPNKWARIGGHVDAGEKPIQAIQREILEEIGVKIPLENFIVLET | -0.266
2 | HMHVLAVDEALHKLTELNELHAKIVEMRFFSGMTVQEVADELGVSKRKIESEWTMIKAWLRKELN | -0.199
3 | HMHVSLSGKIHSELRKLILNGELKAGERLPSEPDLAHELGVSRNSLREAIGLLQREGLLLKKHGIGTFVTD | -1.42
4 | HMHVYQSLVTDRVVPGGGYRTTEAILSTEAWRNTLLEQAKRELIGVRNKYASLTELAKVWTAIDTVT | -1.65
5 | HMHYALTVDFPAALEARIDPAHRAALRGVLAHDPRPSYQSDPERLYGVAFAGKNVKFTVEDGVLTVRKIEE | -0.151
6 | HMHYKLIIFENHTKSTSLDITPEQARQILGVTDYTPEQYEILAEITNRPASYFMDDLVDYYVD | -2.33
7 | HMHYNMNYLENLTKTELFDLAKNKFGLTYAEMERHLSIPEGGARYAIKAEHSKYGSDIKKYLVEFLLE | -1.06
8 | HMIADPAKPDWTTILAPVTTGTTVTHKTFGQGTVTKLDKTKKYLTVSFAAGQKNFVFPNAFIDGFLK | -0.159
9 | HMIADSSSIHQDAKQQLHSYLRTNIQPLMRAGKQLDLKDILHHVTIRKPKLVQQLGMKQVQHMVQVLLD | -1.04
10 | HMIAGHLQEKKGFFYIVLSYPDAAGKRKTKWFPTKLSVKGNKKKAEVMLMDARKTFVPPETPL | -0.497
11 | HMIAITVGSKVRVKAGATFSDGTKPFTEVYNTVYDVQLLSRNGKEARIGIGEQWTGWMYISDLYPADQ | -3.42
12 | HMIAPQISSGKVNTKELNVRSGPATTFGIVKKLPLNAMVGIFEEKNGWFRIATGQWVSKTYVDL | -2.33
13 | HMIAVLEEGSRFRAINDISGKPFGPEMIIKNGQVIAAGKKILTKPKKLIGKKEGTKFNISGKEYVIKDI | -0.747
14 | HMIAWNFDTMKESLSEMERVDYQEFIKAFLSLELSISDRTILNQVYQDYMDEDDLSLISDELRV | 0.0602
15 | HMIDDNTIIQIGDSYSKSIRLLGEPIELKNRSLNQKSYFMAVYDFKGRRYRLFFENDVLFDILRD | -2.66
16 | HMIDELLDPTHRIMVRHPRVDYVSPGFLIGPDKDVILWGFTGGIIARLFDFLGWTRPWDQSHVQDLPPYML | -0.245
17 | HMIDENILSEEIKHYIETNNYAKDDKLPSERSLASLFNVSRALVRKSLISLVDVNYLYVKDKSGYYING | -0.0579
18 | HMIDEPENLIQEDKMVNIIYDLALLEGVKTFNSSNFQSVKSNDFVYKKYKIDSLQFAKSTQFYASDINR | 0.0618
19 | HMIDFDEIEILSSSKIEKIENSEYLKSSIFEKDSNQYIYRLSFENRDQLKNFKKEIEDIDQIKKIDVTY | 0.0545
20 | HMIDHKVIRSFRQKRNMTLQELAQKANLSVSYLSEIELGKKQPSLETLDKLSKALNISLEGL | -0.535
21 | HMIDHLPPQRAAVLAFLQRELVAGRSPSLAEIALAFGFASRNAAQKHVQALVADGLLEQATGRSRGLRLPG | -2.17
22 | HMIDIGSKIKKLRSKKSIEIGKKYTGAMLANELGISRSYLGDIESGRTVPNEIILGKIADIFDVDIYELIG | -1.06
23 | HMIDLPEAFIQQLKEAVDVGDVTGLRELLGQLRRRYPQQSALSDEAERLLREFDFERLAQLFEGLD | -1.67
24 | HMIDNFFTIRFNYSKINEVIRLLKEFNGEIFNKNYDKNEYIIEFSIPKKDAALLISKLKNITGLTIEQ | -1
25 | HMIDQIAEQLQQRLAVDTAFATIQRDYPDVIANKDIELLTAIKVNQKIAEGASRASAMLESAKEVYETL | 0.196

Row | Sequence | soluble fraction (log2)
26 | HMIDRPLTLVEDYERFAGELAKITLRFMLDGRKRFNGRLAGFDEDGKIVLETSFGRFAFSFDEIDSARI | -3.08
27 | HMIDSVFASYRQVALDDELWDKVRNGAVLPKVELFEVMDGPVLFTYQSKIVAMYEPHPTKAGYIKPRKMFL | -2.09
28 | HMIDTTKILPGQEFKNMQELSVALTGQKMPAGKGYVLQQEKFKLYFSWKKITGTHKLIIDEIYEEPKT | -3.23
29 | HMIDYIKYTVDGKTYELINNWDGTWSRELEAPLVAGRYDLLLEISQNGLVTYIDSSDPRYEFYLDVI | -3.02
30 | HMIEESTVPDLKGKSQEDAIKLLEDANLKYQIVEEESKKIEAGYVISQETDANKKVNAGDTVIIHVST | 0.645
31 | HMIEFYTMQDMFYFKLTGDNTSRERREALGKILGIGYGNATQMVSRLNNYGISKEEFSKAIEEIEKQLEA | -2.89
32 | HMIEIKNLSFSYGKKKQSVFNDFSLTLDKGSVYGLLGKNGTGKSTLLYLMTGLLRPQAGQVLYKGVDVS | 0.141
33 | HMIEKVNDYVVRFANVNGTGSASANNLFALAIYRMGVPVTPKNIFPSNIQGLPTWFEVRVSGSGYLARRG | 0.162
34 | HMIELDRTNLLGVFGPKSRPYALLMLSNGEMIKISIGDQFFGWRVYGIDEKSIQVQNGTKQEILRIP | -3.91
35 | HMIENGILELKGKTGVAQTVLRPSGKVLIDDEIYDAVALTGYIEKADKVLVTKVEATQLYVEK | -0.0378
36 | HMIERLVVSPAAGVFTKKMSVENNTRIDVGHVLGHVGETEVRSPFAGILQNYIAVDGERLTAHQPIAWLRS | -0.0936
37 | HMIERVLRTEEHIEAFAGEEVEAKLFAPIDGKKTLRGILGGIEDGRVILTVGDTEYRIEHAKISRLTTVFD | -0.881
38 | HMIESVMVGIKELLGDTIDQKYEKYIRLGGIPSDEVDEFNSVFSAYEKVNGNHNGKKKYDYVMNNLPIIPV | -0.574
39 | HMIETIQVPRAFNDWHEQADKTKSVFEVYAEIEASENEKLIAWVRNNQNEFAKIWLGALIPELE | -1.7
40 | HMIGHIGSAVMLNAKLRPRLPLLHVLALTQSLGERLSAAEAQPEVYRWSDPGQSRVIAEFEGGRLTRWRLE | -2.05
41 | HMIGVIVDEVDPDSSLKSGDIITEVNREVILNIDDFVGLVEQIQKTGRSSLLLKILRDKKSLWVTIQFV | 0.267
42 | HMIHQIPVNVQKIRQIIGINLNENDYLNYLAKLGFVIDEGLIIVPSFRSDVKTQNDLAEEIARV | -0.547
43 | HMIINFDAIKLTTELNKYKRHKAIPNTFFDGTYTILDVRELYNDLTPKAQKIADELIEHYNVDVK | -1.73
44 | HMIINLGELLKMLEVNKYQDAMDALDSLIEEGGSLEKIESLHEIRQHTHAMNFREAERLLSILIESEGA | -1.73
45 | HMIISPKKLEYRQRIINALGDRKMSLNELSKAMGYKGITTKLSFTVDDMIKSGVIEKVMVGAYAKLHIP | -2.33
46 | HMIIVMKRNATETQIDHVVRWVESIGYRAHRSNGTEQTVVKAVGGERGGEELKYLAALSGVEKVVPIR | -1.49
47 | HMIKDSKAAYKILGVDENATNEEIKKAYRQLVINHHPDKVSHLGEDIQRAANEKLKQINAAYDEIKKQRGF | -0.0128
48 | HMIKEGDLVFIWNPKKGDSFLIKVQPGQSQGTHFGQIKHSEIMEHNYGEGIRTPKGQVYYLLRPTLGEFTR | -1.4
49 | HMIKEVGYEKFMQMTEEEDIGRVEIDQEENQITFTDKDETAIYKTGMVDDPDLTERLYDAGAEFS | 0.0721
50 | HMIKIDESTLSEDELKIFEILKIEDKNIENIAIESKILPGKLLATLMNMEMKKIVVQYPGKVFGLNRKLK | -1.81
